From the DeepSol protein solubility set

Assay: soluble on expression in E. coli; label from the status in PepcDB or PDB records

Row | Sequence | soluble on expression in E. coli
1 | MAHHHHHHMQTNYNEIRNLFNYYIREYFYQKSKGSYFVHFKKPGILFMSLKCYKRKKMYYPCIYDWYFDNLNNVKKNKDIFQYKNEYNTKNIYSHKICTEKENLGKNNSYVETDNIYLNKSEENLQNIYKSSNLYYNINPIYLSKICLYNLNEYHILYSNNYYDAFTQYYYSLISYKMDVHNMKIFPNLKILISHIKNISNIINDEVIKNAYIYLIKQRNIMNEEYLKNVFRNIYTTMLHNSSLYLFVDNHDQFIMILKIIKTDDIKSMFESAIPYPYYLIVDENINIYNLQSFNIYINSILNQRMQYNYPYNEKEKGSILNHYNNDKMYMTYNNNINQSKDIKIEKQTEQNEKGFNSMLDTDKGVYEKNIIKDKNDKVYFFKFIKIFDMKPNYRFKQKK | not soluble
2 | MAHHHHHHMRCHVMGPSGHKSEYHCATLLGNWQEERRSFGFVDPAREPLSYMTVYKDSFRGTKTDEELANAKPPSCFHENALPELLFYHNEITNPPKNLLTVNELSYTNAKGGEEVNTLHDILHKEGVSKKRDKTIAIRRELGFIGYGAPHEGSLLASKGATATPLDYTMRCGTTTDQNFLESTRGGCYKPPVIPAIGRMQEKQRLLTTKNVTVDATGEYLKDNIDEYPATSSECWGMFMKFTDNMKGKKLRECYED | not soluble
3 | MAHHHHHHMRLRSPCGVKGIAADALVDLVQSCYPSATVLFTSVANNVAAADNSELRISSSLDAWQAKLHTRRAWRQGLSVDTPGFQRILARRHIVPARSAEAAASSWWALLYAADATNRPRVALPRQPSQSLPPSHIAHPILCCPDAIVYIGGVEVRDVTQVVAPTLVDAVTRVEAPHSTVGAASATHRAERQAPSYCRRRVDWPTVWADKRCAMRGADLLELSLAVPSDLGHRHADVRERVLVSIANPDVTLADLQRQPHAGRRGPLRTSFGFSLPCVQAALPAAVIRAVRVLRRWQRDVAHCIPSTSAFWVSSIGHLLETSVGDAASPLTQWAEACTRQEQELGMSETQMRHLFAIVQPDSDQTSTRVPLPEDATKLLTFLLTSTVLQLACTSPLEAWNGTNYFLPAERFDGTTDAEVLLRTMRSVAGTHLTFPIFSSLYGSPCGAEQGPLSQSSP | not soluble
4 | MAHHHHHHMRRSALRGAARGNDNGAICRRYRDTSLCVVTSLTPSVHGGGSTSVVASSSSLSCPPRPSACYATAMHMSARHRLTNASILSNIKSMANEKDDLTSKLVYLRRRQEDAIAFAVKEKEMLAEKAKRQLAMEEEKLKVEARIEALISEAAQLGGPAAAQRMRDEIAKDKTRYVRSVDAFGDKTVRLQHTFAGLADNRIIHWWEYAYWNYIRYFFTQELLIAKDRFGNKFTVTWQFLKGREEQRRMYRKDSNKKHQPYGALATDERLWERWMRGHRGDPPSVAEEEHLRDYKKQFFGAMVLEDEEVEDALMRLMAHMNRASQTFQELDEDQVYGDAHRVAKPLRETERKPGEEMSARQKQKGATWTLGFARGDLFYNEEETQVMRTEMGHLFRNMEWQELEYKRQVRMNKQQPPHGKPPEGTTDPNTPDGDPMNHYWERTDLGIPYHDAVPDLTTPELERMRIESSQLEDERLAIRKELGLTDLGDIREGREPIKRDHAPFQPPPVSQRWKPKCWEESWGTGSGMKY | not soluble
5 | MAHHHHHHMRRTVVQRVAPWVPPPRHDIKVTMPPPPGGEVGGRFGVSQGYSDRLARTPYWKRMALSTYKLRMMENATRYPMSEHRPGEYDIRYLPTPYPCTIRNRPLLEVGEPRQIPSIRIPVIFLVNLFDEAKGCWFGRRYETVYVERQFMREELMPQRYAIYATPEAYKLLGLPVVNHHTHEEIPKTPREYEKLLERQRYDEERWKYTIEYLFRKYEDGPPELLDRPEDGWDGSEEIALSSVAGAGRDGVVSQRKGPVKQRKARKIKLF | not soluble
6 | MAHHHHHHMRRVRLSPPLLRFPGSLFPKKNLFSKAIPLAIQTCRLFVSYSEPSYYYYYYYHNSCMCEVIRSARDSAERMGFGEGWGVCGASTRRQHRVGLFSSGSSSEHLPCMKGWSGRKDVSLIYAYHTCLLHFLLLHTCV | not soluble
7 | MAHHHHHHMRRYVKPSNIVGANISHPVDIFKMTVEHRVQCGSCHKVRYTRETDCCLSLPIPLDPNLKNSDGNPKQTEEEIFASRPHISLDACLGSLMQATDIDCRCSACGIPVTYCKTTRLRTFPDVLPIFLRRAQFDMETMSVRKLDVFVDVPLELDLEFLRGKGLQSDEVSMPEAREDLPHKPTSSSMKTVDEEALAMLLSMGIEETVARYALLQTGMNAERAVDYVFSRENIAEEAGLAEISTTASESQPVHVLDGPAKYRLHAMISHVGASAKTGHYVCHICDAQTGKWLLFNDEKVAESLNPPFSMAFLYFYKRVGK | soluble
8 | MAHHHHHHMRTPVVGAGVAPLEPAPLEASSAAGEDGGEAGVGDEGTDRERFSKMWMYCLQQMQGHEVGMLMDMMPPDIQELYSDKLSDEYLLDEHDNMDKGVHALRAAQKMVEELTSEQLFHIEEFLAGTDAFNAEANRCHGKAHHPRGDGDNLEEEEEAGGDDDEDLFMHRDEGMGSDEEEWLLEQMIAAGDKTSAAAK | not soluble
9 | MAHHHHHHMRTSAAVLSLFRGQRRLSCTMTAPLATRRFCRSTGDGLQKDWRPLSTTPHQPGPDTPASPSSSKSSANLDACEGALRAAPEGPASSKRGSSFASLALQRGSGEKANRMDRTAGLYKHTIVTETDKAPTGVARSATASSVSTGAGLTAERKKYATIPLRHCGTRAEPGNGSRSASSPPSASNSKREMTAQTEAPKTIKTAARPQDGPMVPDYGPLRATGLWSVEEVLDESKKTVDFRRIDDVESEIIEDHTNAEEALVPYAEEEAWKHKLMFEYKFKKTPKHLTWKEMGEEIECMDCVIELDEHRPEELFTIFFYFTDKKTGTRDLVWSARNDVSYSEGFTDLLAAIGACLGRSDVHRTIRFDDGVGCTRDLTFRKRSRYTSDVYVAFRPPEKYDKFQRKEEKDEYEASMEREGMSTWGYHPSLMDPEFSELDFKDPEGTYEVAISAHGFSFVVLRAIGRLLARPMKDFYRPSQLMRTAKVRTEDEIGFTHALKGWLGVDEQLYPHYTPIEALQDHWLGKDAPFSLCAIVNKLREMNYLKKENPEFQSWLSVRSHDTHLAIRNMGVKLLGVGASTLFVPVSHNATVNRLLPKPQQRRLESRFSLNAVLGLPDETRKLKDFKQITGHDRITDVPTSSTRETATIASPAQDEASVKNSPT | not soluble
10 | MAHHHHHHMSEDESNSVSCSLSLESDGYSDEEYDTNLNKLIENESLNWIFVGGKGGVGKTTTSCSIAVQLSKRRESVLLLSTDPAHNTSDAFNQKFTNQPTLINSFDNLYCMEIDTNYSENTAFKLNKKEMFDNILPELLHSFPGIDEALCFAELMQSIKNMKYSVIVFDTAPTGHTLRLLAFPDLLKKALGYLINIREKLKGTLNVLKNFTNNEMEFDSLYEKINHLNAMSSSIQANFQNPMKTTFVCVCIPEFLSVYETERLIQELTKKNISCYNIVVNQVVFPLDSPNVNLENCKNLLSQIKNEQIQSYFNDLISKTEELEDVYISRRKLQSKYLTQIKNLYSNDFHIVCMPQLKNEIRGLNNISSFSEMLLQSKDIPIYKDNL | not soluble
11 | MAHHHHHHMSGRPEEGLYGNVESQSSNVSQGGRRRTRSEFEGDTDHSSATRIRLEGMYRPQWTMSSTVKDILLEGSTLRTDMKLNEFIRSNLDEEWVVERNGNVIMEAFVQEPDAYVQDQELLRRIINLPAYQALEERKILLEATYKLHHEGVYFLRQWGEHEGKDTVSSHARGKLNGVLTGIEIEEKERREAEEREKARREEEARRDAEEEKARREEQINFNLTLSIKDAIFQGRARVYKMKLNRFLKMELDGRGVADTNRRVLLKEFFKDPTRYVRDAGVLNEIQASDAYLMAKRAVREEMDMEEDIRKLQYKHLRTLLGWSIASAEIRASVREITKGFLDAVLEELRKPTTTIAR | not soluble
12 | MAHHHHHHMSIAASSARKDGPHHPSSGLTGKETLQDARKMEYRASTLEAGGNDMECLQLMETALQIRCKEYGTGSSSPELLKEACDAAERVVMKCNVLGVKLFKEGKYDVATPLFGYAMEMTGEGSFPLRKDDERRRRLRGVTLNNHGCMERHRGHFSTALDYMQQSMQCTGQQSPVAFLNISAVQVQLRLCEEAAHSAVCAIQSLGPNPEDPSLLAVAHHNLAMALELIDPPRAHEEYRLALGLAQNTISRRSEVTRTIESNMQRFVMVLHECRPGNSALTGTNSPRSSCGHTLFVSPRSCSRERSPSGRDAASRTHRVDIFPHPFAVSAKETVAKRSISRPARADAGHPPKRLTSLSPMN | not soluble
13 | MAHHHHHHMSKKNKSFYENDGSGRDTFVNYAGAYWMNPLPAGTFFKSRGHLTQSSVPTENGTSLVMDDSTPYPGRTLFGKSRYGTTILAAGQVATLDAPADSQSGHSAGMGSTSRSTANPLAGTDADAQEFDGEATALEHISFDVSNPERRLRQPGHSTTGLEGTGGGSTYNGVKEPWTAPNAVDSTLLRLAPAYESTCHYHLRTGLFYTEDAAPPHEMTLPDKGVTWGRSRYY | soluble
14 | MAHHHHHHMSLMDCKYHKHHLYADKFWWSPSPETNHMRGDAEFKWKGNELIAYGDYNAHMQHPANFVTSSSSGSSGSGAATSKSAAAAAGSKKGASARPWFRRTVVVRKSQASDTKPLSTASKIAAAGTSK | not soluble
15 | MAHHHHHHMSLPIIRLRTVNSNHATAAYDPVTASCTLYGFLRSVPSRFECDMAMSDFKRGVQAAQGQKCLAKNNANMLNRVFSSVQDRLLRELPKIIPQLARNSSTWRRLLSGAESTSSMSSTPTATRLQDNARSLHNEESTQPSIPSTPLPSAGTGENGNKGNHKNGDHHSSAEEILVEETVSTTSTRFKSPYEQIPPPIHLTASEHKESRATGGMQGEAGERKDASTVVEHRGKGNNLPGKGYRPHPLLLAILERVRSSCSAEENESDREEREFTTIMESREKALRTKLSSAYSMIPPEEKNFKGFLREMEARVAVAQKLFEVQKFEETTIRTTECALKIEVATMRALLHQIVDAVAEAEERHEREGPRSPYYAEECHVMAAIQQALDDLAS | not soluble
16 | MAHHHHHHMSMKKKMTKPFRTVVHLPVEEARGAIVRMIRRHNAVVIVGETGSGKTTQIPQYVWDDLVSREPPEQQGIVGCTQPRRVAAVSIARHVAKQRGGSVGAEVAYAVRFDDTCSRQTKIKYMTDGILLREIQTDPDLSHYRCLLLDEAHERTLHGDVLFGLLKDIVRRRKKTLTIVVMSATLNAEHFSKFWWNAPIGVVHGRLYPVTIFHTVEPQADYVEAAVSTLLQIHEKEEPGDVLCFLTGQEEIEDAKRILERRMKVMPSTLQEFMILTLYSAMPYEQQLRVFEPPLPGKRRIILSTNIAETSITVEGIRYVVDSGVVKAKFFSSKSGMEVLSEVDVSKAQATQRAGRAGRMTAGKCFRLYTAQAFESLAENTVPEIQRSSLISVVLEMKSLRIDRIMDFEFMDAPNPKAVVRAEETLMLLGALDRQGHITRLGQRLIDFPIEPMAAIVLLAGKALGVERDVTIAISMTMTENLFFTSREAKDGADRCKAAFAKSAGDHATLLGIYYAYKRVPKDQRKMWCESNAVNPSQMLKAEDVMTQLGAILNEHSDEELLSTMVRRSPNLAGNGAALHRKRRRDSEKDASGDDETSELLKGQTSGMVKLRDFELIRRALCYGFSLNAAFYNAKIGNYQTVVGQQVVHLHPSSVLFYQRKKPALVVFNSVVRTTRRYMKDVSVVQEEWLRDAASFLRPVA | not soluble
17 | MAHHHHHHMSQLYRGRSYQNILRKLPRNLVVFDGHCLMCQARVRHVLERNFSYFSFIRIMQGVDPVKLEANKMLFCSFDSVEWREVRRNFPHLLNDADGVVLIEKVPSKTASFLSRVRQGQKQRRQQGRTGGMNSSEEKRGLKNFFQTNNFSFPLASSSVTTPRGLAGGFDGVEEDVDIVVSVKYEAVCRIGMKLDRWLLRTLFRCLYYMLPRWMGDRWYDYILRRRQLWGTSEEDAVRYPKRVPGLKERTWKL | not soluble
